Molecular target: CD19/CD20 bispecific CAR (Leu16 scFv-(G4S)4-FMC63 scFv-IgG4 hinge-CD28 TM-4-1BB-CD3 zeta)
Experiment: flow cytometry, staining of T cells (donor 1917) transduced with CD19/20 CAR lentiviral vector

Sequence of CD19/CD20 bispecific CAR (Leu16 scFv-(G4S)4-FMC63 scFv-IgG4 hinge-CD28 TM-4-1BB-CD3 zeta) (chain, as listed by the source): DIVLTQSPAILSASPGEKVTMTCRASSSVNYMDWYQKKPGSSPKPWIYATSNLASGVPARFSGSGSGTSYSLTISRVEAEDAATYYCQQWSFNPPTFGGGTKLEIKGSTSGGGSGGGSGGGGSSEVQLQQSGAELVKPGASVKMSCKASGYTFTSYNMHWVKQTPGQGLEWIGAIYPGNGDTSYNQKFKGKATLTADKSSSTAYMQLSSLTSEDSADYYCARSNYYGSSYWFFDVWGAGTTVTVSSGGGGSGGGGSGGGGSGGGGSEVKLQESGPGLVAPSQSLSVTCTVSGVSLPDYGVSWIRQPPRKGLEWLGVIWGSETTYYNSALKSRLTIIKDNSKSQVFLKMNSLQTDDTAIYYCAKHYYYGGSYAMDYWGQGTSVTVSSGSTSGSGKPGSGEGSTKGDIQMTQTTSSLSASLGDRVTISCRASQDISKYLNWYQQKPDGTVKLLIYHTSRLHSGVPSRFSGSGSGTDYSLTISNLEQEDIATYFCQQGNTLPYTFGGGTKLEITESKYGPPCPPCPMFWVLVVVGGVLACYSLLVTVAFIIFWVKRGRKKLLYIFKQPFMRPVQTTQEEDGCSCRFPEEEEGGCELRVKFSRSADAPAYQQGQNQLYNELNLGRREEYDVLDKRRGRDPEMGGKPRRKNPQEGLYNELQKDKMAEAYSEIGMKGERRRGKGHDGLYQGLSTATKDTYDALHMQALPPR

% Positive Cells: 59.6%
Substance: Byotinilated anti-FMC63 (Acros) (antibody)

From US20260152553A1
